In publication PMC4586593 (The Journal of General Physiology, 2015):
Several values for one entry are separate records, joined by “and”; a condition that tells them apart may be missing. Identical values can stand only once.

Target: actin from chicken pectoralis muscle (F-actin, TRITC-phalloidin labelled) (chicken, UniProt P68139 1-377)
Assay: method of Cremo and Geeves

- Kd: 15 nM and 25 nM
B1: smooth muscle myosin S1 head (domain or fragment)
chain 1: SQKPLSDDEKFLFVDKNFVNNPLAQADWSAKKLVWVPSEKHGFEAASIKEEKGDEVTVELQENGKKVTLSKDDIQKMNPPKFSKVEDMAELTCLNEASVLHNLRERYFSGLIYTYSGLFCVVINPYKQLPIYSEKIIDMYKGKKRHEMPPHIYAIADTAYRSMLQDREDQSILCTGESGAGKTENTKKVIQYLAVVASSHKGKKDTSITQGPSFSYGELEKQLLQANPILEAFGNAKTVKNDNSSRFGKFIRINFDVTGYIVGANIETYLLEKSRAIRQAKDERTFHIFYYLIAGASEQMRNDLLLEGFNNYTFLSNGHVPIPAQQDDEMFQETLEAMTIMGFTEEEQTSILRVVSSVLQLGNIVFKKERNTDQASMPDNTAAQKVCHLMGINVTDFTRSILTPRIKVGRDVVQKAQTKEQADFAIEALAKAKFERLFRWILTRVNKALDKTKRQGASFLGILDIAGFEIFEINSFEQLCINYTNEKLQQLFNHTMFILEQEEYQREGIEWNFIDFGLDLQPCIELIERPTNPPGVLALLDEECWFPKATDTSFVEKLIQEQGNHAKFQKSKQLKDKTEFCILHYAGKVTYNASAWLTKNMDPLNDNVTSLLNQSSDKFVADLWKDVDRIVGLDQMAKMTESSLPSASKTKKGMFRTVGQLYKEQLTKLMTTLRNTNPNFVRCIIPNHEKRAGKLDAHLVLEQLRCNGVLEGIRICRQGFPNRIVFQEFRQRYEILAANAIPKGFMDGKQACILMIKALELDPNLYRIGQSKIFFRTGVLAHLEEERDLKITDVIIAFQAQCRGYLARKAFAKRQQQLTAMKVIQRNCAAYLKLRNWQWWRLFTKVKP
chain 2: CDFSEEQTAEFKEAFQLFDRTGDGKILYSQCGDVMRALGQNPTNAEVMKVLGNPKSDEMNLKTLKFEQFLPMMQTIAKNKDQGCFEDYVEGLRVFDKEGNGTVMGAEIRHVLVTLGEKMTEEEVEQLVAGHEDSNGCINYEELVRMVLSG
chain 3: SSKRAKAKTTKKRPQRATSNVFAMFDQSQIQEFKEAFNMIDQNRDGFIDKEDLHDMLASMGKNPTDEYLEGMMSEAPGPINFTMFLTMFGEKLNGTDPEDVIRNAFACFDEEASGFIHEDHLRELLTTMGDRFTDEEVDEMYREAPIDKKGNFNYVEFTRILKHGAKDKDD
